Experimental findings from publication PMC7617879 are described below.

For the test, the target named is catalytic domain of MMP-14 (MMP-14CAT) (human). Briefly: enzyme inhibition assay.

Turning to “wild-type N-terminal domain of TIMP2 (N-TIMP2) (domain or fragment)”, the Ki was 0.76 nM.
